Source: publication PMC9813914, “Structural Basis for a Cork-Up Mechanism of the Intra-Molecular Mesaconyl-CoA Transferase” (Biochemistry, 2022)

How the values were obtained:
purified protein [1] = substrate: C/C(=C\C(=O)O)C(=O)SCCNC(=O)CCNC(=O)[C@H](O)C(C)(C)COP(=O)(O)OP(=O)(O)OC[C@H]1O[C@@H](n2cnc3c(N)ncnc32)[C@H](O)[C@@H]1OP(=O)(O)O; test: purified protein; format: biochemical, Chloroflexus aurantiacus; details: 200 mM HEPES/KOH pH 8.0, 55 °C, 22 nM Mct, intra-molecular CoA transfer C1 to C4
purified protein [2] = substrate: C/C(=C\C(=O)SCCNC(=O)CCNC(=O)[C@H](O)C(C)(C)COP(=O)(O)OP(=O)(O)OC[C@H]1O[C@@H](n2cnc3c(N)ncnc32)[C@H](O)[C@@H]1OP(=O)(O)O)C(=O)O; test: purified protein; format: biochemical, Chloroflexus aurantiacus; details: 200 mM HEPES/KOH pH 8.0, 55 °C, 22 nM Mct, intra-molecular CoA transfer C4 to C1

B1: Mct (mesaconyl-CoA transferase; mesaconyl-C1:C4-CoA CoA transferase) (Chloroflexus aurantiacus J-10-fl) (protein)
chain: MKGILHGLRVVEGSAFVAAPLGGMTLAQLGADVIRFDPIGGGLDYKRWPVTLDGKHSLFWAGLNKGKRSIAIDIRHPRGQELLTQLICAPGEHAGLFITNFPARGWLSYDELKRHRADLIMVNLVGRRDGGSEVDYTVNPQLGLPFMTGPVTTPDVVNHVLPAWDIVTGQMIALGLLAAERHRRLTGEGQLVKIALKDVGLAMIGHLGMIAEVMINDTDRPRQGNYLYGAFGRDFETLDGKRVMVVGLTDLQWKALGKATGLTDAFNALGARLGLNMDEEGDRFRARHEIAALLEPWFHARTLAEVRRIFEQHRVTWAPYRTVREAIAQDPDCSTDNPMFAMVEQPGIGSYLMPGSPLDFTAVPRLPVQPAPRLGEHTDEILLEVLGLSEAEVGRLHDEGIVAGPDRAA
notes: intertwined homodimer
Km (purified protein [1]): 160 µM | kcat (purified protein [1]): 370 s⁻¹ | Km (purified protein [2]): 200 µM | kcat (purified protein [2]): 320 s⁻¹
